In article PMC10643666:

The substances below were run against ZIKV envelope (E) protein, HA-tagged (assay: co-immunoprecipitation (HA-specific IP) with densitometry of immunoblots). Conditions: HEK 293T cells, lysed 18 h after transfection; n = 4; parent: est. 0.93; read off a plot.

Substance	ratio to parent (fold E; mut:WT)
ZIKV prM protein, wild type R38L; F42A	1.6
ZIKV prM protein, wild type K60L; Y63A	1.7
ZIKV prM protein, wild type K60L; Y63S	0.9
ZIKV prM protein, wild type R38L; F42S	0.93
